From article PMC10659930 (Cell Chemical Biology, 2023)

Molecular target: SARS-CoV-2 spike S1 domain (SARS-CoV-2, ancestral (Wuhan-Hu-1/WA1 …, UniProt P0DTC2))
Assay: ELISA

B1: ADPT02606 (antibody, V domains shown)
VH: EVQLVESGGGLVKPGGSLRLSCAASGFTFSSYSMNWVRQAPGKGLEWVSSITSSSGYMYYADSVKGRFTISRDNAKNSLYLQLNSLRAEDTAVYYCAKDSAFDLWEVRSYYYVMDVWGQGTTVTVSS
VL: not shown
B1: binds.
